{"source": "patent US10005838B2", "about": "“Milk fat globule epidermal growth factor 8 regulates fatty acid uptake” (REGENTS OF THE UNIVERSITY OF CALIFORNIA, priority 2013, dated 2018)", "assay": "Activity of Mfge8 sequence lacking the second discoidin domain (test not named at the place)", "details": "mouse Mfge8 lacking the second discoidin domain", "data": [{"molecule": "SEQ ID NO:4: mouse Mfge8 sequence lacking the second discoidan domain but including all other native sequence (protein, synthetic E1E2D1 mouse milk fat globule epidermal growth factor 8 (Mfge8) long construct (lacking second discoidin domain)) MQVSRVLAALCGMLLCASGLFAASGDFCDSSLCLNGGTCLTGQDNDIYCLCPEGFTGLVCNETERGPCSPNPCYNDAKCLVTLDTQRGDIFTEYICQCPVGYSGIHCETETNYYNLDGEYMFTTAVPNTAVPTPAPTPDLSNNLASRCSTQLGMEGGAIADSQISASSVYMGFMGLQRWGPELARLYRTGIVNAWTASNYDSKPWIQVNLLRKMRVSGVMTQGASRAGRAEYLKTFKVAYSLDGRKFEFIQDESGGDKEFLGNLDNNSLKVNMFNPTLEAQYIKLYPVSCHRGCTLRFELLGCKPFMARYVRVLPVSWHNRITLRLELLGC", "values": [{"measurement": "activity of the Mfge8 fragment", "value": "remains active"}]}]}
